According to PMC2577338:

How the values were obtained:
[1] = target: S. cerevisiae ribosomes with L10 Y9C (S. cerevisiae) (UniProt P41805)
[2] = target: S. cerevisiae ribosomes with L10 R7L (S. cerevisiae) (UniProt P41805)
[3] = target: S. cerevisiae ribosomes with L10 Y11C (S. cerevisiae) (UniProt P41805)
[4] = target: S. cerevisiae ribosomes with L10 Y9N (S. cerevisiae) (UniProt P41805)
[5] = target: wild-type S. cerevisiae ribosomes (wild-type L10) (S. cerevisiae) (UniProt P41805)
[6] = target: S. cerevisiae ribosomes with L10 R7P (S. cerevisiae) (UniProt P41805)
[7] = target: S. cerevisiae ribosomes with L10 R7Q (S. cerevisiae) (UniProt P41805)

## eEF2 (eukaryotic elongation factor 2) (from UniProt P32324 1-842) (natural protein)
[1]
  Kd: 5.2 nM
[2]
  Kd: 10.7 nM
[3]
  Kd: 16.6 nM
[4]
  Kd: 9.7 nM
[5]
  Kd: 10.8 nM
[6]
  Kd: 6.6 nM
[7]
  Kd: 6.1 nM
